From US20250282887A1 (Amgen, published 2025)

T1: human MAGEB18 (human, UniProt Q96M61 1-343)
T1 construct: whole, on cells; FFPE cell pellets; also called MAGE-18
T1 sequence (looked up): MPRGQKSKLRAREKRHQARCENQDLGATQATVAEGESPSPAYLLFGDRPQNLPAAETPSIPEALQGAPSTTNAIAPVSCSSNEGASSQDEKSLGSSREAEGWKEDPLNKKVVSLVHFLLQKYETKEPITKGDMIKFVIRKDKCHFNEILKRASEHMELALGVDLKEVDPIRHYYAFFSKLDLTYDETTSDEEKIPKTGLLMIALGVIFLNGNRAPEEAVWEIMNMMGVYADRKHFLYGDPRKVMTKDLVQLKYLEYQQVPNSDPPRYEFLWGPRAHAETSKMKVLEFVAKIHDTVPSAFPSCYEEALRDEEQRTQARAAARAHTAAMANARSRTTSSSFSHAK

T2: Human MAGEB2 (Melanoma-associated antigen B2) (human, UniProt O15479 1-319)
T2 construct: Intracellular antigen detected by IHC in FFPE material: CHO cells transfected with human MAGEB2 (mCherry vector with Myc/DDK tags, or ORF without tags)
T2 sequence: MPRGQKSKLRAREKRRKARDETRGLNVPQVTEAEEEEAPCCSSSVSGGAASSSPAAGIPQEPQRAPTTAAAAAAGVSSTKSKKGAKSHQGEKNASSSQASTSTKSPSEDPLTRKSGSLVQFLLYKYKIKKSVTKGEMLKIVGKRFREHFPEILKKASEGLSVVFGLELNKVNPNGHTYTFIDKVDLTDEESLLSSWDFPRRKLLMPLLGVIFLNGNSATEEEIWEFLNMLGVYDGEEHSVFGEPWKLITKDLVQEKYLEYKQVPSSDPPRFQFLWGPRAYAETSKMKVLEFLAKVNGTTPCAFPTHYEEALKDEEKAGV

T3: human MAGEA1 (human, UniProt P43355 1-309)
T3 construct: whole, on cells; FFPE cell pellets
T3 sequence (looked up): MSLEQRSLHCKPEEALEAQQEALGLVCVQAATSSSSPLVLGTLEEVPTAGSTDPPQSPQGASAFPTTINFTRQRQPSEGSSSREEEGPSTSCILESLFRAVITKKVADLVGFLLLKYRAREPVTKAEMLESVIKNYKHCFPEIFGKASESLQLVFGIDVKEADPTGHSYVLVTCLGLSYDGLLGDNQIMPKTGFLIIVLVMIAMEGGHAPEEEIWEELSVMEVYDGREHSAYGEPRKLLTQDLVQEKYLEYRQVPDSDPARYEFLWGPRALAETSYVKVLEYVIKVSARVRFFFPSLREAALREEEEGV


Columns and labels:
human MAGEB18 = target: T1, human MAGEB18; experiment: IHC, FFPE CHO cells transfected with human MAGEB18
Method: (§1) FFPE samples were sectioned at 4 μm and mounted on positive charged glass slides. After mounting, paraffin sections were air-dried at room temperature. FFPE TMA samples were received as freshly sectioned and mounted on glass slides. The fully automated IHC assay was performed on a Discovery Ultra Stainer (Ventana Medical Systems, Tucson, AZ) using Ventana Anti-Rabbit HQ (cat #760-4815), Ventana Anti-HQ HRP (cat #760-4820), and Ventana Antibody Diluent with Casein (cat #760-219) (Ventana Medical Systems, Tucson, AZ). The slides were baked on the Discovery Ultra Stainer at 60° C. for 8 minutes, de-paraffinized with Ventana Discovery wash (cat #950-510) for 3 cycles (8 minutes each) at 69° C., and underwent cell conditioning (target retrieval) at 95° C. for 16 minutes (for cell arrays) or 32 minutes (tissues or TMAs) in CC1 buffer (cat #950-500). Following this, slides were incubated with Background Sniper (cat #BS966M, Biocare Medical, Pacheco, CA) in a Ventana Option Prep kit (cat #771-751) for 28 minutes, incubated with CM inhibitor (a part of the Ventana DAB kit cat #760-159) for 12 minutes, and incubated for 1 h at RT with MAGE-B2 antibody diluted with Ventana diluent with Casein in a Ventana Prep kit (cat #770-001) (working concentration at 0.1 μg/ml for cell pellet, or 1-5 ug/ml for tissues) or with a matched concentration of isotype control Rabbit IgG1 antibody. Following this, slides were incubated with the Ventana Anti-Rabbit HQ (cat #760-4815) for 28 minutes at RT, Ventana Anti-HQ HRP (cat #760-4820) for 28 minutes at RT, and signals detected with Ventana DAB chromogen kit (cat #760-159) for 5 minutes at RT. Slides were counterstained with Ventana Hematoxylin II (cat #5266726001) for 8 minutes and Ventana Bluing reagent (cat #526676900) for 4 minutes. Slides were coverslipped and digitized using an Aperio AT2 scanner (Leica Biosystems Inc, Buffalo Grove, IL).

[1] = target: T2, Human MAGEB2 (Melanoma-associated …); experiment: IHC on FFPE T98G cells (endogenous MAGEB2)
Method: as §1

[2] = target: T2, Human MAGEB2 (Melanoma-associated …); experiment: IHC on FFPE NCI-H1395 cells (endogenous MAGEB2)
Method: as §1

[3] = target: T2, Human MAGEB2 (Melanoma-associated …); experiment: IHC on FFPE UM-UC-3 cells (endogenous MAGEB2)
Method: as §1

human MAGEA1 = target: T3, human MAGEA1; experiment: IHC, FFPE CHO cells transfected with human MAGEA1
Method: as §1

[4] = target: T2, Human MAGEB2 (Melanoma-associated …); experiment: IHC on FFPE KMM-1 cells (endogenous MAGEB2)
Method: as §1

Row | binding result (human MAGEB18) | IHC % Frequency [1] | IHC Intensity [1] | IHC % Frequency [2] | IHC Intensity [2] | IHC Intensity [3] | binding result (human MAGEA1) | IHC % Frequency [4] | IHC Intensity [4] | Binder
1 | no binding (tested: 0.1 µg/ml) | 70% | 2 | 0% | 0 | 0 | no binding (tested: 0.1 µg/ml) | 70% | 1 | 1I14 (antibody, V domains shown, also called MAGE-B2 (1i14)) VH: QSVEESGGRLVTPGTPLTLTCTISGFSLSSYAMSWVRQAPGKGLEWIGSIGGGGSAVYASWAKGRFTISKTSTTVDLRITSPTTEDTAMYFCGRGFYSIDLWGPGTLVTVSS VL: DVVMTQTPASVEATVGGTVTIKCQSSQSVYDNNALAWYQQNAGQRPRLLIYGASTLASGVPSRFSASGSGTEFTLTISDLECADAATYYCQCTYYVSSYQNDFGGGTEVVVKG
2 | no binding (tested: 0.1 µg/ml) | 70% | 2 | 0% | 0 | – | no binding (tested: 0.1 µg/ml) | 70% | 1 | 1C3 (antibody, V domains shown, also called MAGE-B2 (IC3); anti-MAGEB2 antibody 1C3) VH: QSLEESGGGLVQPEGSLTLTCTAFGVTLTNYYICWVRQAPGKGLEWVGCIDNANGRTYYASWAKGRFTISKTSSTTGTLQMTSLTAADTATYFCARSLATPLWGPGTLVTVSS VL: DIVMTQTPSSVEAAVGGTVTIKCQASQNISSYLAWYQQKPGQPPKLLIYRASTLASGVPSRFKGSGSGTQFTLTISDLECADAATYYCQSYDDSRSSNFFYAFGGGTEVVVKG
3 | no binding (tested: 0.1 µg/ml) | 70% | 2 | 0% | 0 | 0 | no binding (tested: 0.1 µg/ml) | 70% | 2 | 4G17 (antibody, IgG1, V domains shown, Rabbit monoclonal IgG1; Tested as supernatant and as small batch purified antibody; also called MAGE-B2 (4G17); anti-MAGEB2 antibody 4G17) VH: QSLEESGGGLVQPEGSLTLTCTASGVTLSNYYICWVRQAPGKGLEWIGCIDNVNGRTYYASWAKGRFTISKTSSTTGTLQMTSLTAADTATYFCARSLATPLWGPGTLVTVSS VL: DIVMTQTPASVEAAVGGTVTIKCQASQNIDSYLAWYQQKPGQPPKLLIYRASTLASGVPSRFKGSGSGTEFTLTISDLECADAATYYCQSYDDSRSSSFFYGFGGGTEVVVK
4 | no binding (tested: 0.1 µg/ml) | 70% | 1 | 0% | 0 | 0 | no binding (tested: 0.1 µg/ml) | 70% | – | 1J15 (antibody, IgG1, V domains shown, Rabbit monoclonal IgG1; Tested as supernatant and as small batch purified antibody; also called MAGE-B2 (IJ15); anti-MAGEB2 antibody 1J15) VH: QSLEESGGGLVQPEGSLTLTCTAFGFTLNNYYICWVRQAPGKGLEWIACIDNANGRTYYASWAKGRFTISKTSSTTVTLQMTSLTAADTATYFCARSLSTPLWGPGTLVTVSS VL: DIVMTQTPASVEAAVGGTVTIKCQASQSISSYLSWYQQKPGQPPKLLIYRASTLASGVPSRFRGSGSGTQFTLTISDLECADAATYYCQSYDDSSDNNFFYGFGGGTEVVVR
